{"source": "patent US20130273089A1", "about": "(TOLERA THERAPEUTICS, published 2013)", "key": {"[1]": {"target": "T1, CD14 on cells expressing CD14 (monocyte lineage/NK cells) (UniProt P08571 20-345, limits assumed)", "T1 construct": "whole, on cells", "T1 sequence (looked up)": "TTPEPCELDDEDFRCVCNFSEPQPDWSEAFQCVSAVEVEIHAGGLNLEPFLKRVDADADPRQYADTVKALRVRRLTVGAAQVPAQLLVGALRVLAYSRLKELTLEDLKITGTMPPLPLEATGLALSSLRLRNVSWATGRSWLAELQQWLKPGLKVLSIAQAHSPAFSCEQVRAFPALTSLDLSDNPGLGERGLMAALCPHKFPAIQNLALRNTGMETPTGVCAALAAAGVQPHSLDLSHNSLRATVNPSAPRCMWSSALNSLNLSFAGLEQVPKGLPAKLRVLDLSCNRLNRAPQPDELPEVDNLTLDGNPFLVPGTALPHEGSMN", "assay": "flow cytometry on PBMC from 6 donors"}, "[2]": {"target": "human αβ T cell receptor (αβ TCR) on T cells (human)", "assay": "cell-based or functional assay"}}}
{"binder": "TOL101 murine anti-αβ TCR monoclonal IgM antibody produced by the hybridoma TOL101 MCB (ATCC PTA-13293) (antibody, Murine IgM kappa (IgMκ); It was detected with anti-mouse IgM in flow cytometry; also called TOL101 antibody; TOL101 mAb) heavy: QVQLQQSGAELARPGASVKMSCKASGYTFTSYTMHWVKQRPGQGLEWIGYINPSSGYTNYNQKFKDKATLTADKSSSTAYMQLSSLTSEDSAVYYCARWRDAYYAMDYWGQGTSVTVSSESQSFPNVFPLVSCESPLSDKNLVAMGCLARDFLPSTISFTWNYQNNTEVIQGIRTFPTLRTGGKYLATSQVLLSPKSILEGSDEYLVCKIHYGGKNRDLHVPIPAVAEMNPNVNVFVPPRDGFSGPAPRKSKLICEATNFTPKPITVSWLKDGKLVESGFTTDPVTIENKGSTPQTYKVISTLTISEIDWLNLNVYTCRVDHRGLTFLKNVSSTCAASPSTDILTFTIPPSFADIFLSKSANLTCLVSNLATYETLNISWASQSGEPLETKIKIMESHPNGTFSAKGVASVCVEDWNNRKEFVCTVTHRDLPSPQKKFISKPNEVHKHPPAVYLLPPAREQLNLRESATVTCLVKGFSPADISVQWLQRGQLLPQEKYVTSAPMPEPGAPGFYFTHSILTVTEEEWNSGETYTCVVGHEALPHLVTERTVDKSTGKPTLYNVSLIMSDTGGTCY light: QIVLTQSPAIMSASPGEKVTMTCSASSSVSYMHWYQQKSGTSPKRWIYDTSKLASGVPARFSGSGSGTSYSLTISSMEAEDAATYYCQQWSSNPFTFGSGTKLEIKRADAAPTVSIFPPSSEQLTSGGASVVCFLNNFYPKDINVKWKIDGSERQNGVLNSWTDQDSKDSTYSMSSTLTLTKDEYERHNSYTCEATHKTSTSPIVKSFNRNEC GDDEATILADNKCMCTRVTSRIIPSTEDPNEDIVERNIRIVVPLNNRENISDPTSPLRRNFVYHLSDVCKKCDPVEVELEDQVVTATQSNICNEDDGVPETCYMYDRNKCYTTMVPLRYHGETKMVQAALTPDSCYPD", "values": [{"measurement": "binding result", "setting": "[1]", "value": "no binding"}, {"measurement": "calcium flux in CD4 T cells (Fluo-4) (% of CD4 T cells)", "setting": "[2]", "value": 15}]}
